To fix the notation:
B1: GpH7-A5/GpH7-B3 variant E333_09D/GpL16-k0 (antibody, human IgG1, kappa)
heavy 1: not shown
heavy 2: not shown
light: DIVMTQSPLSLPVTPGEPASISCQASESLVHSNRNTYLHWYLQKPGQSPQLLIYKVSNRFSGVPDRFSGSGSGTDFTLKISRVEAEDVGVYYCSQNTHVPPTFGQGTKVEIERTVAAPSVFIFPPSDEQLKSGTASVVCLLNNFYPREAKVQWKVDNALQSGNSQESVTEQDSKDSTYSLSSTLTLSKADYEKHKVYACEVTHQGLSSPVTKSFNRGEC
notes: heterodimerized; also called He Ab E333_09D
B2: GpH7-A5/GpH7-B3 variant G236_20W/GpL16-k0 (antibody, human IgG1, kappa)
heavy 1: not shown
heavy 2: not shown
light: DIVMTQSPLSLPVTPGEPASISCQASESLVHSNRNTYLHWYLQKPGQSPQLLIYKVSNRFSGVPDRFSGSGSGTDFTLKISRVEAEDVGVYYCSQNTHVPPTFGQGTKVEIERTVAAPSVFIFPPSDEQLKSGTASVVCLLNNFYPREAKVQWKVDNALQSGNSQESVTEQDSKDSTYSLSSTLTLSKADYEKHKVYACEVTHQGLSSPVTKSFNRGEC
notes: heterodimerized; also called He Ab G236_20W; GpH7-A5/GpH7-B3-03-20W/GpL16-k0
B3: GpH7-A5/GpH7-B3 variant H268_14T/GpL16-k0 (antibody, human IgG1, kappa)
heavy 1: not shown
heavy 2: not shown
light: DIVMTQSPLSLPVTPGEPASISCQASESLVHSNRNTYLHWYLQKPGQSPQLLIYKVSNRFSGVPDRFSGSGSGTDFTLKISRVEAEDVGVYYCSQNTHVPPTFGQGTKVEIERTVAAPSVFIFPPSDEQLKSGTASVVCLLNNFYPREAKVQWKVDNALQSGNSQESVTEQDSKDSTYSLSSTLTLSKADYEKHKVYACEVTHQGLSSPVTKSFNRGEC
notes: heterodimerized; also called He Ab H268_14T
B4: GpH7-A5/GpH7-B3 variant E333_14T/GpL16-k0 (antibody, human IgG1, kappa)
heavy 1: not shown
heavy 2: not shown
light: DIVMTQSPLSLPVTPGEPASISCQASESLVHSNRNTYLHWYLQKPGQSPQLLIYKVSNRFSGVPDRFSGSGSGTDFTLKISRVEAEDVGVYYCSQNTHVPPTFGQGTKVEIERTVAAPSVFIFPPSDEQLKSGTASVVCLLNNFYPREAKVQWKVDNALQSGNSQESVTEQDSKDSTYSLSSTLTLSKADYEKHKVYACEVTHQGLSSPVTKSFNRGEC
notes: heterodimerized; also called He Ab E333_14T
B5: GpH7-A5/GpH7-B3 variant E333_15Y/GpL16-k0 (antibody, human IgG1, kappa)
heavy 1: not shown
heavy 2: not shown
light: DIVMTQSPLSLPVTPGEPASISCQASESLVHSNRNTYLHWYLQKPGQSPQLLIYKVSNRFSGVPDRFSGSGSGTDFTLKISRVEAEDVGVYYCSQNTHVPPTFGQGTKVEIERTVAAPSVFIFPPSDEQLKSGTASVVCLLNNFYPREAKVQWKVDNALQSGNSQESVTEQDSKDSTYSLSSTLTLSKADYEKHKVYACEVTHQGLSSPVTKSFNRGEC
notes: heterodimerized; also called He Ab E333_15Y
B6: GpH7-A5/GpH7-B3 variant I336_02A/GpL16-k0 (antibody, human IgG1, kappa)
heavy 1: not shown
heavy 2: not shown
light: DIVMTQSPLSLPVTPGEPASISCQASESLVHSNRNTYLHWYLQKPGQSPQLLIYKVSNRFSGVPDRFSGSGSGTDFTLKISRVEAEDVGVYYCSQNTHVPPTFGQGTKVEIERTVAAPSVFIFPPSDEQLKSGTASVVCLLNNFYPREAKVQWKVDNALQSGNSQESVTEQDSKDSTYSLSSTLTLSKADYEKHKVYACEVTHQGLSSPVTKSFNRGEC
notes: heterodimerized; also called He Ab I336_02A
B7: GpH7-A5/GpH7-B3 variant E333_13S/GpL16-k0 (antibody, human IgG1, kappa)
heavy 1: not shown
heavy 2: not shown
light: DIVMTQSPLSLPVTPGEPASISCQASESLVHSNRNTYLHWYLQKPGQSPQLLIYKVSNRFSGVPDRFSGSGSGTDFTLKISRVEAEDVGVYYCSQNTHVPPTFGQGTKVEIERTVAAPSVFIFPPSDEQLKSGTASVVCLLNNFYPREAKVQWKVDNALQSGNSQESVTEQDSKDSTYSLSSTLTLSKADYEKHKVYACEVTHQGLSSPVTKSFNRGEC
notes: heterodimerized; also called He Ab E333_13S
B8: GpH7-A5/GpH7-B3 variant I336_01G/GpL16-k0 (antibody, human IgG1, kappa)
heavy 1: not shown
heavy 2: not shown
light: DIVMTQSPLSLPVTPGEPASISCQASESLVHSNRNTYLHWYLQKPGQSPQLLIYKVSNRFSGVPDRFSGSGSGTDFTLKISRVEAEDVGVYYCSQNTHVPPTFGQGTKVEIERTVAAPSVFIFPPSDEQLKSGTASVVCLLNNFYPREAKVQWKVDNALQSGNSQESVTEQDSKDSTYSLSSTLTLSKADYEKHKVYACEVTHQGLSSPVTKSFNRGEC
notes: heterodimerized; also called He Ab I336_01G
B9: GpH7-A5/GpH7-B3 variant I336_06M/GpL16-k0 (antibody, human IgG1, kappa)
heavy 1: not shown
heavy 2: not shown
light: DIVMTQSPLSLPVTPGEPASISCQASESLVHSNRNTYLHWYLQKPGQSPQLLIYKVSNRFSGVPDRFSGSGSGTDFTLKISRVEAEDVGVYYCSQNTHVPPTFGQGTKVEIERTVAAPSVFIFPPSDEQLKSGTASVVCLLNNFYPREAKVQWKVDNALQSGNSQESVTEQDSKDSTYSLSSTLTLSKADYEKHKVYACEVTHQGLSSPVTKSFNRGEC
notes: heterodimerized; also called He Ab I336_06M
B10: GpH7-A5/GpH7-B3 variant H268_12R/GpL16-k0 (antibody, human IgG1, kappa)
heavy 1: not shown
heavy 2: not shown
light: DIVMTQSPLSLPVTPGEPASISCQASESLVHSNRNTYLHWYLQKPGQSPQLLIYKVSNRFSGVPDRFSGSGSGTDFTLKISRVEAEDVGVYYCSQNTHVPPTFGQGTKVEIERTVAAPSVFIFPPSDEQLKSGTASVVCLLNNFYPREAKVQWKVDNALQSGNSQESVTEQDSKDSTYSLSSTLTLSKADYEKHKVYACEVTHQGLSSPVTKSFNRGEC
notes: heterodimerized; also called He Ab H268_12R
B11: GpH7-A5/GpH7-B3 variant G236_02A/GpL16-k0 (antibody, human IgG1, kappa)
heavy 1: not shown
heavy 2: not shown
light: DIVMTQSPLSLPVTPGEPASISCQASESLVHSNRNTYLHWYLQKPGQSPQLLIYKVSNRFSGVPDRFSGSGSGTDFTLKISRVEAEDVGVYYCSQNTHVPPTFGQGTKVEIERTVAAPSVFIFPPSDEQLKSGTASVVCLLNNFYPREAKVQWKVDNALQSGNSQESVTEQDSKDSTYSLSSTLTLSKADYEKHKVYACEVTHQGLSSPVTKSFNRGEC
notes: heterodimerized; also called He Ab G236_02A

For this test, the target named is T1, FcγRIa (human, UniProt P12314 16-292).
T1 construct: extracellular domain; also called FcgRI; CD64
T1 sequence (P12314 16-292): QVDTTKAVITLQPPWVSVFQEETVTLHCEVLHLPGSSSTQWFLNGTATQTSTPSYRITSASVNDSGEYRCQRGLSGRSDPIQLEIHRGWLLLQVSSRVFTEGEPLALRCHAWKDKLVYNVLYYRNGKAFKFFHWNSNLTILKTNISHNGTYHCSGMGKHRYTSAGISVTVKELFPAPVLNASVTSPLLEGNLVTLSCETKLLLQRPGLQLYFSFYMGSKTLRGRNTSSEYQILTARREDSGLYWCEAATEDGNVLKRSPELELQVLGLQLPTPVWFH
Put plainly: SPR; vs GpH7-A5/GpH7-B3/GpL16-k0=100. In general terms: In SPR one partner is held on a chip, and binding of the other changes the refractive index at the surface.
As for B1, the He/Con_1a was 104 % of control. Regarding B2, the He/Con_1a is 105 % of control.

B3: the He/Con_1a is 112 % of control. As for B4, the He/Con_1a is 102 % of control. As to B5, the He/Con_1a was 101 % of control. Regarding B6, the He/Con_1a was 106 % of control. B7: the He/Con_1a was 103 % of control. The result for B8 reads 109 % of control; that for B9, 108 % of control. Next, B10: 106 % of control. Next, B11: 100 % of control.

Values taken from patent publication US20180155451A1 (published 2018).
